Test results: paper PMC2853123
Where two headings read alike, the source gives them in different places.

Key:
Assay in all cases: EMSA
MBNL1 (GST-MBNL1 1-260) [1] = target: T1, MBNL1 (GST-MBNL1 1-260) (UniProt Q9NR56 1-260)
T1 sequence: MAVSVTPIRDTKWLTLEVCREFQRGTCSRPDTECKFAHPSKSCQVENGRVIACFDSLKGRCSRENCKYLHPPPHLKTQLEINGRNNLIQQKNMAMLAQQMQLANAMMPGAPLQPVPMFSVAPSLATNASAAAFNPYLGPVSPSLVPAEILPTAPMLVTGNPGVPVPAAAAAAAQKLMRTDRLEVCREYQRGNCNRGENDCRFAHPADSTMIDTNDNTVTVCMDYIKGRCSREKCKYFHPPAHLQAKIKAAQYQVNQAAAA

MBNL1 (GST-MBNL1 1-260) [2] = target: T1, MBNL1 (GST-MBNL1 1-260); remark: listed apart in the source
MBNL1 (GST-MBNL1 1-260) [3] = target: T1, MBNL1 (GST-MBNL1 1-260); remark: listed apart in the source
MBNL1 (GST-MBNL1 1-260) [4] = target: T1, MBNL1 (GST-MBNL1 1-260); remark: listed apart in the source
MBNL1 (GST-MBNL1 1-260) [5] = target: T1, MBNL1 (GST-MBNL1 1-260); remark: listed apart in the source

B1: GRIN1 (ssRNA)
RNA: GCCGAGGAGGUGGUGUGAUUGCUUUAGCGCCGUCAUUUUC
- Kd (MBNL1 (GST-MBNL1 1-260) [1]): 280 nM

B2: F06 32mer (ssRNA)
RNA: CCGAUCCCGCUUAUGCCAUCCGCUGCAGUCAC
- binding result (MBNL1 (GST-MBNL1 1-260) [2]): binds

B3: F06 UCCA 81mer (ssRNA)
RNA: GGGAAUGGAUCCACAUCUACGAAUUCCCGAUCCUCCAUAUGCCAUCCGCUGCAGUCACAAGACUCGAUACGUGACGAACCU
- binding signal (MBNL1 (GST-MBNL1 1-260) [3]): 140 fold lower affinity than F06

B4: ATP2A1 (ssRNA)
RNA: UGCCACUGCUGCUGCUGCGCUUCCAGUCAGGGUGGGCCGC
- Kd (MBNL1 (GST-MBNL1 1-260) [1]): 15 nM

B5: TNNT2 32mer (ssRNA)
RNA: CCUGUCUCGCUUUUCCCCUCCGCUGCGGCCAC
- Kd (MBNL1 (GST-MBNL1 1-260) [1]): 20 nM

B6: A04 32mer (ssRNA)
RNA: CCUGCUUCGCUUCUGCAUUGUUCGGCCGGUUG
- Kd (MBNL1 (GST-MBNL1 1-260) [1]): 180 nM

B7: B07 32mer (ssRNA)
RNA: UGUUCCUCGCUUUUCGCCUCCGCUUCCGCCGC
- Kd (MBNL1 (GST-MBNL1 1-260) [1]): 0.66 nM

B8: H01 CA1-2 (ssRNA)
RNA: GGGAAUGGAUCCACAUCUACGAAUUCCCUCAUUUCAUAUUGCGCUGCAAUUCCUGUUCAAGACUCGAUACGUGACGAACCU
- binding signal (MBNL1 (GST-MBNL1 1-260) [4]): 12 fold lower affinity than H01

B9: (CUGCUU)6 (SELEX motif 1) (ssRNA)
RNA: CUGCUUCUGCUUCUGCUUCUGCUUCUGCUUCUGCUU
- binding result (MBNL1 (GST-MBNL1 1-260) [5]): binds

B10: TNNT2 81mer template (ssRNA)
RNA: GGGAAUGGAUCCACAUCUACGAAUUCCCUGUCUCGCUUUUCCCCUCCGCUGCGGCCACAAGACUCGAUACGUGACGAACCU
- Kd (MBNL1 (GST-MBNL1 1-260) [1]): 30 nM

B11: INSR (ssRNA)
RNA: GCGGCGGGCAGCUGUGCUGGAGAGCAGAUGCUUCACCAAU
- Kd (MBNL1 (GST-MBNL1 1-260) [1]): 120 nM

B12: MBNL1 site #2 (ssRNA)
RNA: CCUUUAUUGUGCAUGCUUAGUCUUGUUAUUCGUUGUAUAU
- Kd (MBNL1 (GST-MBNL1 1-260) [1]): 45 nM
